Data from IntAct's records for PubMed 17595294.

B1: Glycine--tRNA ligase (Homo sapiens), P41250 (parent)
chain: MPSPRPVLLRGARAALLLLLPPRLLARPSLLLRRSLSAASCPPISLPAAASRSSMDGAGAEEVLAPLRLAVRQQGDLVRKLKEDKAPQVDVDKAVAELKARKRVLEAKELALQPKDDIVDRAKMEDTLKRRFFYDQAFAIYGGVSGLYDFGPVGCALKNNIIQTWRQHFIQEEQILEIDCTMLTPEPVLKTSGHVDKFADFMVKDVKNGECFRADHLLKAHLQKLMSDKKCSVEKKSEMESVLAQLDNYGQQELADLFVNYNVKSPITGNDLSPPVSFNLMFKTFIGPGGNMPGYLRPETAQGIFLNFKRLLEFNQGKLPFAAAQIGNSFRNEISPRSGLIRVREFTMAEIEHFVDPSEKDHPKFQNVADLHLYLYSAKAQVSGQSARKMRLGDAVEQGVINNTVLGYFIGRIYLYLTKVGISPDKLRFRQHMENEMAHYACDCWDAESKTSYGWIEIVGCADRSCYDLSCHARATKVPLVAEKPLKEPKTVNVVQFEPSKGAIGKAYKKDAKLVMEYLAICDECYITEMEMLLNEKGEFTIETEGKTFQLTKDMINVKRFQKTLYVEEVVPNVIEPSFGLGRIMYTVFEHTFHVREGDEQRTFFSFPAVVAPFKCSVLPLSQNQEFMPFVKELSEALTRHGVSHKVDDSSGSIGRRYARTDEIGVAFGVTIDFDTVNKTPHTATLRDRDSMRQIRAEISELPSIVQDLANGNITWADVEARYPLFEGQETGKKETIEE
partner: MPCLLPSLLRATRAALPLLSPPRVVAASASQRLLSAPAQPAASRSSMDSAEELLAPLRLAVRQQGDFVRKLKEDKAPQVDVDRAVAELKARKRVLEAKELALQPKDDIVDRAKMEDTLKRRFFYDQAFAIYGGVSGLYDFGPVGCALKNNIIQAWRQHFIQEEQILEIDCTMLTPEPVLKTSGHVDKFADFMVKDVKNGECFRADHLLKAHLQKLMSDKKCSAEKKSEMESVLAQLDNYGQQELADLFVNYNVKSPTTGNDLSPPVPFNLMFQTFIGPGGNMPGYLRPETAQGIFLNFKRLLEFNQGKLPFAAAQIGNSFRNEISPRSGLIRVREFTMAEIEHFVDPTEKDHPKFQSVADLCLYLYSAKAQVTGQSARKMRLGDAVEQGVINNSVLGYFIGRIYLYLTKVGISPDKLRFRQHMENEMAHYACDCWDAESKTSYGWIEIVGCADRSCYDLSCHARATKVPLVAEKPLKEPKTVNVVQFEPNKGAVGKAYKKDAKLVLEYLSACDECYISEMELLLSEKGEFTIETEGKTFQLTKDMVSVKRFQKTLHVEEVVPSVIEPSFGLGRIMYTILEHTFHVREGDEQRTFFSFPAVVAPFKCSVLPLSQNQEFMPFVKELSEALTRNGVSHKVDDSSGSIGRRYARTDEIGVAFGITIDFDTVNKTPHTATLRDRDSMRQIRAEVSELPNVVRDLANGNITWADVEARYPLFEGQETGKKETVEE

Variants of: B1
Conditions: with gars_mouse Gars1, Q9CZD3

| Variant | effect of a mutation on the interaction |
| --- | --- |
| L183P | disrupting interaction strength |
| G294R | disrupting interaction strength |

Now from value to variant:

| effect of a mutation on the interaction | Variant |
| --- | --- |
| increasing interaction strength | S644L |
| increasing interaction strength | G580R |
| increasing interaction strength | D554N |
